In one assay the target is T1, FcRn (UniProt P55899 24-297; P61769 21-119, limits assumed).
T1 construct: a molecular weight of 45 kDa was used
Briefly: SPR at pH 6.0, antibody immobilized, FcRn injected, steady state model; pH 6.0. The method, then:
Antibody binding affinity to FcRn was detected using Biacore T200 (or Biacore 8K). Each antibody was immobilized on CM5 sensor chip (GE). FcRn at different concentrations in running buffer (50 mM Na2HPO4/NaH2PO4, 150 mM NaCl, 0.05% Tween20, pH 6.0) were injected over the sensor chip at a flow rate of 30 uL/min for an association phase of 60 s, followed by 60 s dissociation. The chip was then regenerated by 1×PBS (pH 7.4) after each binding cycle.

The target in assay [1] is T2, Cynomolgus CD3 epsilon protein (W331-cynoPro1.ECD.His) (cynomolgus, UniProt Q95LI5 22-117).
T2 construct: extracellular domain; Bought protein; also called Acro #CDE-C5226
T2 sequence (looked up): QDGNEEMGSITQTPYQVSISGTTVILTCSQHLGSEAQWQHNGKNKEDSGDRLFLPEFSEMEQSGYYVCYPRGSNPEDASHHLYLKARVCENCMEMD
Briefly: ELISA, cynomolgus CD3 epsilon protein coated.
Method: The binding of the CD3×CD19 bispecific antibody to Cynomolgus CD3 were tested by protein binding ELISA. […] All wells were washed one time with 300 μL per well of PBS/0.5‰ Tween-20 (v/v). The wells were then blocked for one hour at room temperature with 200 μL per well of PBS/2% BSA (BOVOGEN, #BSAS) and washed three times with 300 μL per well of PBS/0.5‰ Tween-20 (v/v). For the primary antibody binding, CD3×CD19 bispecific antibody serially diluted in PBS/2% BSA were added to the relevant wells and incubated at room temperature for two hours. […] Plates were incubated at room temperature for one hour, followed by six washes as described above. […] The extent of bispecific antibody binding to Cynomolgus CD3 was determined by measuring the OD450 absorbance using the SpectraMax® M5e microplate reader. Wherever appropriate, binding EC50 values were obtained by the four-parameter non-linear regression analysis using GraphPad Prism5 software.

The next assay concerns the target T3, FcγRIIa (R167) (UniProt P12318 36-218, limits assumed).
T3 sequence (looked up): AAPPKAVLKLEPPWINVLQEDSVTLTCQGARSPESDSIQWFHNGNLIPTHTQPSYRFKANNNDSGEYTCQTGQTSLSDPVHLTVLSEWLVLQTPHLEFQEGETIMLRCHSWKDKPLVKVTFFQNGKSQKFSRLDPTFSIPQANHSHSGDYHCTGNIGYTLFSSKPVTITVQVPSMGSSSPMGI
Briefly: SPR (Biacore), receptor captured on anti-his chip, steady state model. The procedure: (§1) Antibody binding affinity to FcγRs was detected using Biacore T200 (or Biacore 8K). Each receptor was captured on an anti-his antibody immobilized CM5 sensor chip (GE). Antibodies at different concentrations were injected over the sensor chip at a flow rate of 30 uL/min for an association phase of 60 s, followed by 60 s dissociation. The chip was then regenerated by 10 mM glycine (pH 1.5) after each binding cycle.
(§2) The sensorgrams of blank surface and buffer channel were subtracted from the test sensorgrams. The experimental data was fitted by 1:1 model using Langmiur analysis (for FcγRI) or steady state model (for other receptors). A molecular weight of 150 KDa was used to calculate the molar concentration of antibodies.

A further assay concerns the target T4, FcγRIIa (H167) (UniProt P12318 36-218, limits assumed).
T4 sequence (looked up): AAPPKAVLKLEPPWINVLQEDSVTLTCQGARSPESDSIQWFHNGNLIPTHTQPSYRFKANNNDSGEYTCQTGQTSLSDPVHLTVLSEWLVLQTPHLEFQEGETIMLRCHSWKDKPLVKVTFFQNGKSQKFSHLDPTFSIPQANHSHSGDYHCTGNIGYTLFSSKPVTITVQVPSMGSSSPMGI
Described as above. The procedure: as §1, §2

Another assay deals with T5, FcγRIIb (UniProt P31994 46-217, limits assumed).
T5 sequence (looked up): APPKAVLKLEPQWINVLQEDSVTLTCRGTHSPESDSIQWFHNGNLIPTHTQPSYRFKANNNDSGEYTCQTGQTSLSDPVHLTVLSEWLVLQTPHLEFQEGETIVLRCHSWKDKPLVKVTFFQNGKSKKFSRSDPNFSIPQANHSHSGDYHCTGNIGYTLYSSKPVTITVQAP
The assay is described as above. The procedure:
as §1, §2

The target of the next assay is FcγRIIIa (V176) (UniProt P08637 17-208). Described as above. The procedure:
as §1, §2

The next assay deals with FcγRIIIa (F176) (UniProt P08637 17-208). The description is as above. The procedure:
as §1, §2

For assay [2], the target named is T6, ECD of human CTLA-4 (SPR analyte) (human, UniProt P16410 36-161).
T6 construct: extracellular domain
T6 sequence (P16410 36-161): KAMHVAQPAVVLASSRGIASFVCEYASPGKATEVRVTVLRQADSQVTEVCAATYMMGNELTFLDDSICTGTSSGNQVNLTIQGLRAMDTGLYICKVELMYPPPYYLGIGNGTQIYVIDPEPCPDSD
Briefly: SPR (Biacore), antibody captured as ligand on an anti-human IgG Fc chip, CTLA4 ECD as analyte. The procedure: SPR technology was used to measure the on-rate constant (ka) and off-rate constant (kd) of the antibodies to ECD of CTLA-4 or PD-1. The affinity constant (KD) was consequently determined.
Biacore T200, Series S Sensor Chip CM5, Amine Coupling Kit, and 10×HBS-EP were purchased from GE Healthcare. Goat anti-human IgG Fc antibody was purchased from Jackson ImmunoResearch Lab (catalog number 109-005-098). In immobilization step, the activation buffer was prepared by mixing 400 mM EDC and 100 mM NHS immediately prior to injection. The CM5 sensor chip was activated for 420 s with the activation buffer. 30 μg/mL of goat anti-human IgG Fcγ antibody in 10 mM NaAc (pH 4.5) was then injected to Fc1-Fc4 channels for 200 s at a flow rate of 5 μL/min. The chip was deactivated by 1 M ethanolamine-HCl (GE). Then the antibodies were captured on the chip. Briefly, 4 μg/mL antibodies in running buffer (HBS-EP+) was injected individually to Fc3 channel for 30 s at a flow rate of […]. […] Regeneration buffer (10 mM Glycine pH 1.5) was injected at 10 μL min for 30 s following every dissociation phase.

T1 sequence (P55899 24-297 limits assumed, chain 1 of 2): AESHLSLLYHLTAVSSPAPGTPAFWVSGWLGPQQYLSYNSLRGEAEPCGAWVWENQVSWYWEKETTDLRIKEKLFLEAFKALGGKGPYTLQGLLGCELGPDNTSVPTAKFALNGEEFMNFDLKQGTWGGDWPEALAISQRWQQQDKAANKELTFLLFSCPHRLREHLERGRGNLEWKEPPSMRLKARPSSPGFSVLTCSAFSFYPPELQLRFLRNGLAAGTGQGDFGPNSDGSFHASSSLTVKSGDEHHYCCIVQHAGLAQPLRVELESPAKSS
T1 sequence (P61769 21-119 limits assumed, chain 2 of 2): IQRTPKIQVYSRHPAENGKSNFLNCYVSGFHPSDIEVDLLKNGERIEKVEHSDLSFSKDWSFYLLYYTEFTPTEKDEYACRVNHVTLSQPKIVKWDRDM
Chain of FcγRIIIa (F176) (P08637 17-208 limits assumed): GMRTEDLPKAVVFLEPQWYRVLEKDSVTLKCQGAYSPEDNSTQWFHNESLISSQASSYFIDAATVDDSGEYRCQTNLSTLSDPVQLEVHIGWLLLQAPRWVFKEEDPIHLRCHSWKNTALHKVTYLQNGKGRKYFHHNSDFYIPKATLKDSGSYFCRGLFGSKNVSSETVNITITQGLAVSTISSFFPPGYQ
Chain of FcγRIIIa (V176) (P08637 17-208 F176V limits assumed): as the sequence (P08637 17-208 limits assumed) above, with F160V counted along it

B1: W3438-T3U4.E17-1.uIgG4.SP, bispecific anti-CD3 x CD19 (bispecific antibody)
heavy 1: QVQLVQSGAEVKKPGSSVKVSCKASGFAFTDYYIHWVRQAPGQGLEWMGWISPGNVNTKYNENFKGRVTITADKSTSTAYMELSSLRSEDTAVYYCARDGYSLYYFDYWGQGTLVTVLEDLKNVFPPEVAVFEPSEAEISHTQKATLVCLATGFYPDHVELSWWVNGKEVHSGVCTDPQPLKEQPALQDSRYALSSRLRVSATFWQNPRNHFRCQVQFYGLSENDEWTQDRAKPVTQIVSAEAWGRYGPPCPPCPAPEFLGGPSVFLFPPKPKDTLMISRTPEVTCVVVDVSQEDPEVQFNWYVDGVEVHNAKTKPREEQFNSTYRVVSVLTVLHQDWLNGKEYKCKVSNKGLPSSIEKTISKAKGQPREPQVYTLPPCQEEMTKNQVSLWCLVKGFYPSDIAVEWESNGQPENNYKTTPPVLDSDGSFFLYSRLTVDKSRWQEGNVFSCSVMHEALHNHYTQKSLSLSLGK
light 1: DIVMTQSPDSLAVSLGERATINCKSSQSLLNSRTRKNYLAWYQQKPGQPPKLLIYWASTRQSGVPDRFSGSGSGTDFTLTISSLQAEDVAVYYCTQSHTLRTFGGGTKVEIKPDIQNPDPAVYQLRDSKSSDKSVCLFTDFDSQTQVSQSKDSDVYITDKCVLDMRSMDFKSNSAVAWSQKSDFACANAFQNSIIPEDTFFPSPESS
heavy 2: QMQLVQSGPEVKKPGTSVKVSCKASGYAFTSYNMYWVRQARGQRLEWIGYIDPYNGDTTYNQKFKGRVTITRDMSTSTAYMELSSLRSEDTAVYYCLTTAYAMDYWGQGTLVTVSSASTKGPSVFPLAPCSRSTSESTAALGCLVKDYFPEPVTVSWNSGALTSGVHTFPAVLQSSGLYSLSSVVTVPSSSLGTKTYTCNVDHKPSNTKVDKRVESKYGPPCPPCPAPEFLGGPSVFLFPPKPKDTLMISRTPEVTCVVVDVSQEDPEVQFNWYVDGVEVHNAKTKPREEQFNSTYRVVSVLTVLHQDWLNGKEYKCKVSNKGLPSSIEKTISKAKGQPREPQVCTLPPSQEEMTKNQVSLSCAVKGFYPSDIAVEWESNGQPENNYKTTPPVLDSDGSFFLVSRLTVDKSRWQEGNVFSCSVMHEALHNHYTQKSLSLSLGK
light 2: DIQLTQSPSFLSASVGDRVTITCSASSTVNYMHWYQQKPGKAPKLLIYSTSNLASGVPSRFSGSGSGTEFTLTISSLQPEDFATYYCHQWSSYPYTFGQGTKLEIKRTVAAPSVFIFPPSDEQLKSGTASVVCLLNNFYPREAKVQWKVDNALQSGNSQESVTEQDSKDSTYSLSSTLTLSKADYEKHKVYACEVTHQGLSSPVTKSFNRGEC
notes: also called E17-Design_2-QQQQ (IgG4); E17-IgG4; copies: 1 + 1 + 1 + 1
Usually Kd stands for the concentration at which binding is half-saturated. Read a high Kd as lower affinity. What is called EC50 is the concentration at which the effect is half-maximal. In the case of B1, the Kd is 2.58 µM in the assay with FcRn; 15.8 µM in the assay with FcγRIIa (R167); 20.5 µM with FcγRIIa (H167); 24.1 µM in the assay with FcγRIIb; 14 µM with FcγRIIIa (V176); 29.3 µM with FcγRIIIa (F176). In addition, the EC50 in assay [1] stood at 0.04 nM.

B2: W3248-U6T5.G25-1.uIgG4.SP, bispecific anti-PD-1 x CTLA-4 (bispecific antibody)
heavy: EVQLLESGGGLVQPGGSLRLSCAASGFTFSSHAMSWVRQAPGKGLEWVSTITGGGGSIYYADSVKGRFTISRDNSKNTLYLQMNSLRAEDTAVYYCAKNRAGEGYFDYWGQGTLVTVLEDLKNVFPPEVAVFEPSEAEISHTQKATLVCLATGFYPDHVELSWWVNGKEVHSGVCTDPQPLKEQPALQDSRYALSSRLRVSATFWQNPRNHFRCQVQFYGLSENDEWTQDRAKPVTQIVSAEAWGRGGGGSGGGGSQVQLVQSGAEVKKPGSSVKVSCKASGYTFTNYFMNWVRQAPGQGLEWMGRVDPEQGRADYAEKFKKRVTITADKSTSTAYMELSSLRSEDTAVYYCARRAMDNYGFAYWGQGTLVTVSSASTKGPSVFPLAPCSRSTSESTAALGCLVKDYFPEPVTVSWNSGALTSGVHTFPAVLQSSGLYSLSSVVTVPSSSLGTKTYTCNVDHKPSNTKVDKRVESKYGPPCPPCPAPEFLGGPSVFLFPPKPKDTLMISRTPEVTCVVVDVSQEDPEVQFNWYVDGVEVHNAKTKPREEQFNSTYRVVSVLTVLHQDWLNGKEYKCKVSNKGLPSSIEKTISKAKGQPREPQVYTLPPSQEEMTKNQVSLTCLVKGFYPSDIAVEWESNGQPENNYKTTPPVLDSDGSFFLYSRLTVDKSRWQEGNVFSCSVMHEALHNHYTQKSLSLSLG
light 1: SYELTQPLSVSVALGQTARITCGGDNIGNKDVHWYQQKPGQAPVLVIYRDSNRPSGIPEGFSGSNSGNTATLTISRAQAGDEADYYCQVWDSIWVFGGGTKLTVLPDIQNPDPAVYQLRDSKSSDKSVCLFTDFDSQTQVSQSKDSDVYITDKCVLDMRSMDFKSNSAVAWSQKSDFACANAFQNSIIPEDTFFPSPESS
light 2: EIVLTQSPDFQSVTPKEKVTITCSANSALSYMYWYQQKPDQSPKLWVHGTSNLASGVPSRFSGSGSGTDFTLTINSLEAEDAATYYCHHWSNTQWTFGGGTKVEIKRTVAAPSVFIFPPSDEQLKSGTASVVCLLNNFYPREAKVQWKVDNALQSGNSQESVTEQDSKDSTYSLSSTLTLSKADYEKHKVYACEVTHQGLSSPVTKSFNRGEC
notes: IgG4 (S228P); also called WBP3248-U6T5.G25-1-uIgG4.SP; U6T5.G25.IgG4
For orientation: koff means a measure of how fast the partners let go of each other. Broadly, the kon is the rate constant with which the complex forms. Low readings indicate slower complex formation, high ones faster complex formation. B2: in assay [2], the Kd amounted to 0.0356 nM, the koff amounted to 2.88e-05 s⁻¹ and the association rate constant (kon) is 808000 M⁻¹ s⁻¹.

(Values after patent US20240124586A1 (WUXI BIOLOGICS IRELAND, published 2024).)
